The values below come from US5811393A (The Childrens Medical Center Corp., priority 1993, dated 1998).

Data set [1] relates to bovine aortic smooth muscle cells. In words: [3H]-thymidine incorporation into smooth muscle cell DNA. The data set is classed as cell-based. The conditions noted are these: purification steps of HB-EHM from 8 L U-937 conditioned medium. Here is the method: (§1) Conditioned medium was assayed for growth factor activity directly, as described below, using either fibroblasts (i.e., BALB/c mouse 3T3 cells), epithelial cells (i.e., human keratinocytes), or smooth muscle cells (i.e., bovine aortic smooth muscle cells, BASMC). Alternatively, CM was first fractionated by fast protein liquid chromatography (FPLC, Pharmacia, Piscataway, N.J.) by applying 500 ml of the CM to a TSK-heparin 5PW column (8×75 mm, TOSOHAAS, Philadelphia, Pa.). The column was washed with 10 column volumes of equilibration buffer (0.2M NaCl, 0.01M Tris-HCl, pH 7.5), and bound protein was eluted with a 40 ml linear gradient of 0.2-2M NaCl in 0.01M Tris-HCl , pH 7.4 at 1 ml/min. Fractions (2.5 ml) were tested for growth factor activity by measuring the effect of aliquots of the fractions on DNA synthesis in, or the proliferation of, BALB/c mouse 3T3 cells; such activity was monitored by assaying the incorporation of [^3 H]-thymidine into DNA and/or by measuring the increase in cell number. Measurement of DNA synthesis in BALB/c mouse 3T3 cells was performed as described by Shing et al. (223 Science 1296, 1984, hereby incorporated by reference). One unit of BALB/c mouse 3T3 stimulation activity was defined as the amount of growth factor required to stimulate half-maximal DNA synthesis in BALB/c mouse 3T3 cells under the conditions described in Shing et al. (supra). […]
On the technique in general: Incorporation of labelled thymidine or its analogues reports DNA synthesis.

A short description of data set [2]: Stability of growth-stimulatory activity to acid, heat and DTT (read out in BALB/c 3T3 [3H]-thymidine assay). Type of data set: physicochemical. As for the experimental part:
as §1, with “(supra). To measure DNA synthesis in bovine capillary endothelial cells, cells were trypsinized and re-plated sparsely (1×10^4 cells/well) with 400 μl of Dulbecco's modified Eagle's medium (DMEM, GIBCO, Grand Island, N.Y.) supplemented with 10% bovine calf serum (GIBCO, Grand Island, N.Y.) and antibiotics (100 units/ml penicillin and 100 μg/ml streptomycin sulfate, GIBCO, Grand Island, N.Y.) in 48-well plates (Costar, Cambridge, Mass.). After 24 hours of incubation, the medium was replaced with the same volume of DMEM supplemented with 2% bovine calf serum, antibiotics, 1 μM thymidine and 0.5% bovine serum albumin. After 24 hours of incubation, the test samples were added to the wells. Eighteen hours later, [^3 H]-thymidine (0.6 uCi/well, New England Nuclear, Wilmington, Del.) was added. After an additional 5 hours, each plate was treated by the same procedure as used to harvest the BALB/c mouse 3T3 cells to measure the incorporation of [^3 H]-thymidine into the DNA of the cells. To measure DNA synthesis in bovine aortic smooth muscle cells (from Dr. H. Weich, Children's Hospital, Boston), the cells were trypsinized and re-plated sparsely (1×10^4 cells/well) with 400 μl of DMEM supplemented with 10% Colorado calf serum (Colorado Serum Company) and antibiotics (100 units/ml penicillin and 100 μg/ml streptomycin sulfate, GIBCO, Grand Island, N.Y.) in 48-well plates.” for “(supra).”

The test system of data set [3] is bovine capillary endothelial cells. In words: Proliferation / DNA synthesis of bovine capillary endothelial cells. The data set is classed as cell-based. The conditions noted are these: purified form. As for the experimental part:
as §1

A further data set has as its system EGF receptor. In words: EGF receptor autophosphorylation in A-431 cells (anti-phosphotyrosine Western blot). The following applies: 5 ng/ml, 15 minutes. Type of data set: cell-based, human. Here is the method: This was shown by plating A-431 cells in 6-well plates and culturing in Dulbecco's Modified Eagle's Medium (DMEM) containing 10% fetal bovine serum and antibiotics. […] After 15 minutes, the cells were washed with ice-cold phosphate-buffered saline containing 0.4 mm EDTA, 10 mM Na-fluorate, 10 mM Na-pyrophosphate and 0.4 mM Na-orthovanadate, scraped and lysed in 100 μl of PI/RIPA buffer [1% NP-40 (Pierce, Rockford, Ill.), 1% deoxycholate (Aldrich, Milwaukee, Wis.), 0.1% SDS, 1% aprotinin (Boehringer-Mannheim, Indianapolis, Ind.), 1 mM PMSF (Pierce), 2 mM EDTA (Sigma), 10 mM Na-fluorate, (Sigma, St. Louis, Mo.), 10 mM Na-pyrophosphate (Baker, Phillipsburg, N.J.), 0.4 mM Na-orthovanadate, (Aldrich), 10 mM iodoacetamide (Aldrich) in phosphate buffered saline]. Thirty μl of supernatant clarified by spinning for a 5 minute period in a microfuge was analyzed by reducing SDS/polyacrylamide gel electrophoresis (6% polyacrylamide gel). […] A standard of phosphorylated EGF receptor was purchased from UBI (Lake Placid, N.Y.).
Background: A western blot detects proteins with antibodies after separation by electrophoresis.

B1: HB-EHM: novel heparin binding growth factor with EGF-homologous segment, purified from U-937 lymphoma cell conditioned medium, about 22 kD (protein)
chain: RVTLSSKPQALATPNKEEHGKRKKKGKGLGKKRDPCLRKYKDFCIHGECKYVKELRAPSCICHPGYHGERCHGLS
modifications: O-linked glycosylation (suggested by O-glycanase treatment; the threonines predicted at positions 2 and 12 of the form first sequenced were not detected in protein sequencing)
Take B1: the “Maximal Stimulation” value in data set [1] came to 0.5 ng/mL. In data set [2] (5 mM DTT for 2 hours, 3T3 [3H]-thymidine readout), the “growth-stimulatory activity after exposure to DTT” value is given as “destroyed completely”. Moreover, the “activity after acid treatment with glycine-HCl” value in data set [2] (0.1M glycine-HCl, pH 2.5 for 2 hours) was “not lost”. Further, the “growth-stimulatory activity after heating” value in data set [2] (90° C. for 5 minutes, 3T3 [3H]-thymidine readout) was “not destroyed”. The “growth-stimulatory activity after exposure to pH 2.5” value in data set [2] (pH 2.5 for 2 hours, 3T3 [3H]-thymidine readout) was “resistant”. Also, the “proliferation of bovine capillary endothelial cells” value in data set [3] is “did not stimulate proliferation”. Besides, in the data set on EGF receptor, the “autophosphorylation of the EGF receptor (170 kDa protein)” value is “triggered autophosphorylation”.
